Assay [1] deals with T1, human GPC3-His protein (human, UniProt P51654 25-559).
T1 construct: Bought protein; also called human GPC3 protein; not shown: His tag
The experiment in a line: ELISA, coated human GPC3, antibody 0.01 nM.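 Note: Plate-bound antigen coated at 1 µg/mL, antibody incubated 2 h at 37 °C, binding detected by HRP-conjugated secondary antibody with TMB substrate, read as absorbance at 450 nm.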

Assay [2] has as its target T2, GPC3 endogenously expressed on HepG2 cells (UniProt P51654 25-554).
T2 construct: whole, on cells
The experiment in a line: FACS on HepG2 cells.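 Note: flow cytometric binding of chimeric antibodies to cells, read as mean fluorescence intensity, EC50 obtained by curve fitting of the MFI data.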

Assay [3] addresses T1, human GPC3-His protein. In words: ELISA, coated human GPC3, antibody 0.001 nM. (In general: ELISA stands for enzyme-linked immunosorbent assay.)
In assay [4] the target is T1, human GPC3-His protein. The experiment in a line: ELISA, coated human GPC3, antibody 0.1 nM.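 Note: antigen coated on 96-well plates at 1 µg/mL, antibody bound 2 h at 37 °C, detected with HRP-labeled secondary antibody and TMB substrate, acid-stopped.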
Procedure: (§1) The specific method is described as follows: The antigen protein was diluted with PBS to a final concentration of 1 μg/mL, and the diluent was added to a 96-well ELISA plate at 50 μL/well. The plate was sealed with a plastic film and incubated at 4° C. overnight, washed twice with PBS the next day, and a blocking solution [PBS+2% (w/w) BSA] was added for blocking at room temperature for 2 h. […] After incubation at 37° C. for 2 h, the plate was washed 3 times with PBS. A horseradish peroxidase (HRP)-labeled secondary antibody (purchased from Merck, Cat. No. AP113P) was added for incubation at 37° C. for 1 h, and the plate was washed 5 times with PBS. A TMB substrate was added at 50 μL/well for incubation at room temperature for 10 min, then a stop solution (1.0M HCl) was added at 50 μL/well. An ELISA plate reader (Multimode Plate Reader, EnSight, purchased from Perkin Elmer) was used to read OD_{450 nm} values, with results as shown in Table 4 to Table 6, FIG. 1A, FIG. 1B, and FIG. 1C.
For assay [5], the target named is T1, human GPC3-His protein. In words: ELISA, coated human GPC3, antibody 100 nM.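 Note: antibodies bound to antigen-coated 96-well plates (1 µg/mL), 2 h at 37 °C, detected with HRP-labelled secondary antibody and TMB substrate, absorbance read at 450 nm.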
Procedure: as §1
The target in assay [6] is T1, human GPC3-His protein. The experiment in a line: ELISA, coated human GPC3, antibody 0.0001 nM.
For assay [7], the target named is T1, human GPC3-His protein. The experiment in a line: ELISA, coated human GPC3, antibody 10 nM.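 Note: plate coated with antigen at 1 µg/mL, antibodies bound 2 h at 37 °C, detected via HRP-conjugated secondary antibody and TMB substrate, absorbance read after acid stop.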
The target in assay [8] is T3, human GPC3 on CHO-K1-human GPC3 cells (clone CHOK1-hGPC3.2B5) (human, UniProt P51654 25-554).
T3 construct: whole, on cells; Stably transfected CHO-K1 clone 2B5
The experiment in a line: FACS on CHOK1-hGPC3.2B5 cells.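 Note: flow cytometry binding of chimeric antibodies to the cells, read out as mean fluorescence intensity, with the half-maximal concentration derived by curve fitting.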

The target of assay [9] is T1, human GPC3-His protein. In words: ELISA, coated human GPC3, antibody 1 nM.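 Note: antigen coated at 1 µg/mL on 96-well plates, antibody bound for 2 h at 37 °C, detected with HRP-labeled secondary antibody and TMB, absorbance read at 450 nm.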
Procedure: as §1
The target of assay [10] is T4, polypeptide GC3pep (human).
T4 construct: also called membrane proximal polypeptide GC3pep
T4 peptide: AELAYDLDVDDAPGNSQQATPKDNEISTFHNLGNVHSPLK
In words: ELISA, GC3pep coated, antibody 100 nM.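 Note: detection with an HRP-conjugated secondary antibody and TMB substrate, color reaction stopped with HCl before absorbance reading.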

Assay [11] concerns the target T4, polypeptide GC3pep. The experiment in a line: ELISA, GC3pep coated, antibody 0.01 nM.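 Note: bound antibody detected with an HRP-conjugated secondary antibody and TMB substrate, color reaction stopped with HCl before reading absorbance.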
Procedure: (§2) The plate was sealed with a plastic film and incubated at 4° C. overnight, washed twice with PBS the next day, and a blocking solution [PBS+2% (w/w) BSA] was added for blocking at room temperature for 2 h. […] After incubation at 37° C. for 2 h, the plate was washed 3 times with PBS. A horseradish peroxidase (HRP)-labeled secondary antibody (purchased from Merck, Cat. No. AP113P) was added for incubation at 37° C. for 1 h, and the plate was washed 5 times with PBS. A TMB substrate was added at 50 μL/well for incubation at room temperature for 10 min, then a stop solution (1.0M HCl) was added at 50 μL/well.
For assay [12], the target named is T4, polypeptide GC3pep. In words: ELISA, GC3pep coated, antibody 0.0001 nM.
Assay [13] concerns the target T4, polypeptide GC3pep. In words: ELISA, GC3pep coated, antibody 0.001 nM.
Assay [14] deals with T4, polypeptide GC3pep. The experiment in a line: ELISA, GC3pep coated, antibody 10 nM.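 Note: antibody bound to the coated peptide for 2 h at 37 °C, detected through an HRP-conjugated secondary antibody with TMB colour development stopped by acid.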
Procedure: as §2
In assay [15] the target is T4, polypeptide GC3pep. In words: ELISA, GC3pep coated, antibody 1 nM.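 Note: bound antibody detected with an HRP-conjugated secondary antibody and TMB substrate, reaction stopped with HCl, after 2 h binding at 37 °C.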
Procedure: as §2
In assay [16] the target is T4, polypeptide GC3pep. In words: ELISA, GC3pep coated, antibody 0.1 nM.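 Note: antibody allowed to bind the coated plate 2 h at 37 °C, then detected via HRP-conjugated secondary antibody and TMB development for 10 min, stopped with HCl.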
Procedure: as §2

B1: F2.152.3 human-murine chimeric antibody (antibody, human IgG1, kappa, V domains shown)
VH: EVQLQQSGPELVKPGASVKMSCKASGYTFTDYYMTWVKQSHGKSLEWIGRVNPRNGDTTYNQKFEGRATLTLDKSLSTAFMQLNSLTSEDSAVYYCINSKGHFDYWGQGTTLTVSS
VL: DVLMTQTPLSLPVSLGDQASISCRSSQSIVHSNGNTYLEWFLQKPGQSPKSLIYKVSNRFSGVPDRFSGSGSGTDFTLKISRVEAEDLGVYYCFQGSHVPPTFGAGTKLELKR
What is called EC50 is the concentration giving half of the maximal effect. Read a high EC50 as a less potent agent. B1: the OD450 nm in assay [1] was 0.32 OD450; in assay [3], 0.13 OD450; in assay [4], 1.45 OD450; in assay [5], 2.43 OD450; in assay [6], 0.1 OD450; in [7], 2.43 OD450. Besides, in assay [9], the OD450 nm is 2.28 OD450. The EC50 in assay [2] came out at 0.23 nM; in [8], 0.73 nM. The “Max MFI” value is 4490 MFI in assay [2] and 2830 MFI in assay [8].

B2: F3.81.19 human-murine chimeric antibody (antibody, human IgG1, kappa, V domains shown)
VH: QVQLQQSGAELVRPGASVKLSCKASGYTFTDYEMHWVKQTPVHGLEWIGTIDPETGNTAYNQKFKGKATLTADKSSSTAYMELRSLTSEDSAVYYCTRPYSLTYWGQGTLVTVSA
VL: DVLLTQTPLSLPVSLGDQASISCRSSQSFVHSNGDTYLQWYLQKPGQSPKLLIYKVSNRFSGVPDRFSGSGSGTDFTLKISRVEAEDLGVYYCFQGSHVPYTFGSGTKLEIKR
Turning to B2, the OD450 nm in assay [1] came to 0.19 OD450; in assay [3], 0.28 OD450; in [4] it was 0.87 OD450; in assay [5], 2.45 OD450; in assay [6], 0.1 OD450; in assay [7], 2.49 OD450. In addition, in [9], the OD450 nm came out at 2.04 OD450. In addition, the EC50 in [2] amounted to 2.72 nM; in assay [8], 2.58 nM. Besides, the “Max MFI” value in [2] worked out at 5740 MFI; in assay [8] it was 14100 MFI.

B3: F3.38.7 human-murine chimeric antibody (antibody, human IgG1, kappa, V domains shown)
VH: QVQLQQSGAELVRPGASVKLSCKASGYTFTDYEIHWVKQTPVLGLEWIGAIDPKTGNTAYNQKFMGKATLTADKSSTTAYMDLRSLTSEDSAVYYCTRYFSFAYWGQGTLVTVSA
VL: DVLMTQTPLSLPVSLGDQASISCRSSQTFVHSNGNTYLQWYLQKPGQSPKLLIYKVSNRFSGVPDRFSGSGSGTDFTLKISRVEAEDLGVYYCFQGSHVPYTFGSGTKLEIKR
Regarding B3, the OD450 nm came out at 0.38 OD450 in [1]; 0.13 OD450 in assay [3]; 1.62 OD450 in [4]; 2.48 OD450 in [5]; 0.09 OD450 in assay [6]; 2.44 OD450 in [7]. Moreover, in [9], the OD450 nm turned out to be 2.18 OD450. In addition, the figures for the EC50 in assay [2] and in assay [8] were 1.2 nM and 0.85 nM, respectively. Moreover, the results for the “Max MFI” value in assay [2] and in assay [8] were 4980 MFI and 16200 MFI, respectively.

B4: F4.13.7 human-murine chimeric antibody (antibody, human IgG1, kappa, V domains shown)
VH: QVQLQQPGAELVKPGASVKLSCKASGYTFTNNWVHWVKQRPGQGLEWTGMIHPDSGSTIYNEKFQSKATLTVDKSSSTAYMQLSSLTSEDSAVYYCARGYYDSSSYYAMDYWGQGTSVTVSS
VL: NIQMTQTTSSLSASLGDRVTISCSASQGIFNYLNWYQQKPDGTVKLLIYYTSSLHSGVPSRFSGSGSGTDYSLTISNLEPEDIATYYCQQYSKLPWTFGGGTKLEIKR
As for B4, the OD450 nm in assay [1] was 0.3 OD450; in assay [3] it was 0.12 OD450; in assay [4], 1.27 OD450; in assay [5] it was 2.3 OD450; in assay [6], 0.1 OD450; in assay [7], 2.27 OD450. For the same molecule, the OD450 nm in assay [9] came to 2.28 OD450. Besides, the EC50 in assay [2] is 0.58 nM; in assay [8], 1.1 nM. For the same molecule, the “Max MFI” value in [2] was found to be 1150 MFI; in [8], 1710 MFI.

B5: F1.41.17 (antibody, human IgG1, kappa, V domains shown)
VH: EVQLVESGGDSVKPGGSLKLSCAASGFTFSSYGMSWVRQTPDKRLEWVATINSGGSYTYYQDSVKGRFTISRDNAKNTLYLQMSSLKSEDTAIYYCVRHHYGSSYDYFDYWGQGTTLTVSS
VL: DIVMTQAAPSVPVMPGESVSISCRSSKSLLHSNGNTHLYWFLQRPGQSPQLLIYRMSNLASGVPDRFSGSGSGTAFTLRISRVEAEDVGVYYCMQHLEYPLTFGAGTKLELKR
notes: human-murine chimeric antibody
Turning to B5, the OD450 nm in assay [10] was found to be 0.06 OD450 nm; in [11], 0.05 OD450 nm; in [12], 0.05 OD450 nm; in assay [13], 0.05 OD450 nm; in [14], 0.05 OD450 nm; in [15], 0.05 OD450 nm. The same molecule had an OD450 nm in assay [16] of 0.05 OD450 nm.

B6: F4.18.4 human-murine chimeric antibody (antibody, human IgG1, kappa, V domains shown)
VH: QVQLHQSGAEMAKPGASVNLSCKTSGFTFTDYGISWVKQRTRQGLEWIGDIYPRHINIYYNEKFKDKATLTADRSSSTAYMELRSMTSEDSAVYFCARRGTTGRGALDYWGQGTSLTVSS
VL: DILLTQSPAILSVSPGERVSFSCRASQSIGTSIHWYQQRTNGSPRLLIKYAFESISGIPSRFGGSGSRTDFTLTINSVESEDIADYYCQQTYNWPYTFGGGTKLEIKR
B6: the OD450 nm in assay [1] was found to be 0.26 OD450; in assay [3] it was 0.15 OD450; in assay [4], 0.83 OD450; in assay [5], 1.02 OD450; in [6], 0.16 OD450; in assay [7] it was 1.18 OD450. This molecule returned an OD450 nm in [9] of 1.41 OD450. Further, the EC50 stood at 0.92 nM in assay [2] and 0.89 nM in assay [8]. In addition, the “Max MFI” value in assay [2] was 1390 MFI; in assay [8], 2370 MFI.

B7: F2.92.1 human-murine chimeric antibody (antibody, human IgG1, kappa, V domains shown)
VH: QVQLQQSGAELVRPGASVKLSCKASGYIFSDYEIHWVKQTPVHGLECIGAVDPETGGTAYNQKFKGKATLTADKSSSTAYMELRSLTSEDSAVYFCTRFYSFAYWGQGTLVTVST
VL: DVVMTQTPLSLPVSLGDQGSISCRSSQSLVHSNGNTYLQWYLQKPGQSPKLLIYKVSNRFSGVPDRFSGSGSGTDFTLKISRVEAEDLGVYFCCQSTHVLPTFGGGTKLEIKR
Turning to B7, the OD450 nm was determined as 0.32 OD450 in [1]; 0.12 OD450 in assay [3]; 1.23 OD450 in assay [4]; 2.45 OD450 in assay [5]; 0.11 OD450 in assay [6]; 2.23 OD450 in assay [7]. This molecule showed an OD450 nm in assay [9] of 2.24 OD450. Moreover, the EC50 in [2] and in assay [8] was 0.92 nM each time. Further, the “Max MFI” value in assay [2] stood at 14000 MFI; in assay [8] it was 29400 MFI.

B8: F3.54.12 human-murine chimeric antibody (antibody, human IgG1, kappa, V domains shown)
VH: QVQLQQSGAELVRPGASVKLSCKASGYTFTDYEMHWVKQTPVHGLEWIGAIDPETGNTAYIQKFKGKATLTTDKSSSTAYMELRSLTSEDSAVYYCTRFYSYSHWGQGTTLTVSS
VL: DVVMTQTPLSLPVSLGDQASISCRSSQSLVHSNGNTYLHWYLQKPGQSPKLLIYKVSNRFSGVPDRFSGSSSGTDFTLKISRVEAEDLGVYFCSQNTHVPPTFGGGTKLEIKR
On to B8, for which the OD450 nm came out at 0.48 OD450 in [1]; 0.15 OD450 in assay [3]; 1.58 OD450 in assay [4]; 2.44 OD450 in assay [5]; 0.13 OD450 in assay [6]; 2.41 OD450 in [7]. Further, the OD450 nm in [9] worked out at 2.29 OD450. The EC50 in [2] worked out at 0.83 nM; in assay [8], 0.72 nM. Besides, the “Max MFI” value in assay [2] is 4460 MFI; in assay [8] it was 15000 MFI.

B9: F4.26.1 human-murine chimeric antibody (antibody, human IgG1, kappa, V domains shown)
VH: QVQLKQSGPGLVQPSQSLSITCTVSGFSLTSYGVHWVRQSPGKGLEWLGVIWSSGNTDYNAVLISRLSIKKDDSKSQVFFKMNSPQVDDSAIYYCGRNGGWLLRGFMDFWGQGTSVTVSS
VL: DVVMTQTPLSLPVSLGDQASISCRSSQSLLHSNGNTYLHWYLQRSGQSPNLLIYKVSNRFSGVPDRFSGGGSGTDFTLKISRVEAEDLGIYFCSQSTHVPWTFGGGTKLEIKR
Consider B9, for which the OD450 nm in assay [1] stood at 0.18 OD450; in [3] it was 0.11 OD450; in [4], 0.64 OD450; in [5] it was 1 OD450; in assay [6] it was 0.09 OD450; in assay [7] it was 1.43 OD450. The OD450 nm in assay [9] amounted to 1.25 OD450. Moreover, the figures for the EC50 in [2] and in assay [8] were 0.85 nM and 1.21 nM, respectively. The “Max MFI” value in assay [2] is 1600 MFI; in [8], 2810 MFI.

B10: F4.21.16 human-murine chimeric antibody (antibody, human IgG1, kappa, V domains shown)
VH: DVQLQESGPGLVKPSQSLSLTCSVTGYSITSGYYWNWIRQFPGNKLEWMGYISYDVTVNYNPSLKNRISITRDTSKNQFFLKLNSVTTEDTATYYCATITSVASMDHWGQGTSVTVSS
VL: DILMTQTPLSLPVSLGDQASISCRSSQNIVHRNGNTYLEWYLQKPGQSPKLLLYKVSNRFSGVPDRFSGSGSGTDFTLKISRVEAEDLGIYYCFQGSHFPFTFGSGTKLEIKR
On to B10, for which the OD450 nm in [1] turned out to be 0.15 OD450; in assay [3] it was 0.1 OD450; in assay [4] it was 0.46 OD450; in assay [5], 0.52 OD450; in [6], 0.1 OD450; in [7], 1.14 OD450. Moreover, the OD450 nm in assay [9] worked out at 1.37 OD450. The EC50 in assay [2] was 2.31 nM; in assay [8], 3.25 nM. Also, the “Max MFI” value in [2] came to 1710 MFI; in [8], 2170 MFI.

The values are drawn from patent US20260116991A1 (HAINAN SIMCERE ZAIMING PHARMACEUTICAL, published 2026).
